T1: FGF-5 (UniProt P12034 23-268, limits assumed, biotinylated with EZ-Link Sulfo-NHS-Biotin in the BioVeris assay only)
T1 construct: also called bFGF5 (biotinylated, BioVeris assay); FGF-5, carrier-free (R&D Systems #237-F5/CF)
T1 sequence (looked up): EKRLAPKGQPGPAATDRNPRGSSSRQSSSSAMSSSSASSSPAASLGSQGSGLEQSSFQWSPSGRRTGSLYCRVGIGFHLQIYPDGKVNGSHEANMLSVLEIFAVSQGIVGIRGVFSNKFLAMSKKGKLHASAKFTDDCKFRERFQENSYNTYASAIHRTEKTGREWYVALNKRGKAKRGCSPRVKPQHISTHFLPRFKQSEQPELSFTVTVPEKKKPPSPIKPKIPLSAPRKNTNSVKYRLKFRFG


These binders were tested against T1, FGF-5 (assay: BLA binding assay, purified peptide-BLA fusion on FGF-5-coated plate, nitrocefin).

Row | Binder | Percent Bound at 0.1 nM
1 | 2H9 peptide-BLA fusion (other) CHYLLTNYCTPVSEKQLAEVVANTITPLMKAQSVPGMAVAVIYQGKPHYYTFGKADIAANKPVTPQTLFELGSISKTFTGVLGGDAIARGEISLDDAVTRYWPQLTGKQWQGIRMLDLATYTAGGLPLQVPDEVTDNASLLRFYQNWQPQWKPGTTRLYANASIGLFGALAVKPSGMPYEQAMTTRVLKPLKLDHTWINVPKAEEAHYAWGYRDGKAVRVSPGMLDAQAYGVKTNVQDMANWVMANMAPENVADASLKQGIALAQSRYWRIGSMYQGLGWEMLNWPVEANTVVEGSDSKVALAPLPVAEVNPPAPPVKASWVHKTGSTGGFGSYVAFIPEKQIGIVMLANTSYPNPARVEAAYHILEALQHHHHHH | 5%
2 | 2H10 peptide-BLA fusion (other) CRIHLAHKCTPVSEKQLAEVVANTITPLMKAQSVPGMAVAVIYQGKPHYYTFGKADIAANKPVTPQTLFELGSISKTFTGVLGGDAIARGEISLDDAVTRYWPQLTGKQWQGIRMLDLATYTAGGLPLQVPDEVTDNASLLRFYQNWQPQWKPGTTRLYANASIGLFGALAVKPSGMPYEQAMTTRVLKPLKLDHTWINVPKAEEAHYAWGYRDGKAVRVSPGMLDAQAYGVKTNVQDMANWVMANMAPENVADASLKQGIALAQSRYWRIGSMYQGLGWEMLNWPVEANTVVEGSDSKVALAPLPVAEVNPPAPPVKASWVHKTGSTGGFGSYVAFIPEKQIGIVMLANTSYPNPARVEAAYHILEALQHHHHHH | 8%
3 | 2E2 peptide-BLA fusion (other) CLTVLWTTCTPVSEKQLAEVVANTITPLMKAQSVPGMAVAVIYQGKPHYYTFGKADIAANKPVTPQTLFELGSISKTFTGVLGGDAIARGEISLDDAVTRYWPQLTGKQWQGIRMLDLATYTAGGLPLQVPDEVTDNASLLRFYQNWQPQWKPGTTRLYANASIGLFGALAVKPSGMPYEQAMTTRVLKPLKLDHTWINVPKAEEAHYAWGYRDGKAVRVSPGMLDAQAYGVKTNVQDMANWVMANMAPENVADASLKQGIALAQSRYWRIGSMYQGLGWEMLNWPVEANTVVEGSDSKVALAPLPVAEVNPPAPPVKASWVHKTGSTGGFGSYVAFIPEKQIGIVMLANTSYPNPARVEAAYHILEALQHHHHHH | 7%
4 | 1A6 peptide-BLA fusion (other) CEEIWTMLCTPVSEKQLAEVVANTITPLMKAQSVPGMAVAVIYQGKPHYYTFGKADIAANKPVTPQTLFELGSISKTFTGVLGGDAIARGEISLDDAVTRYWPQLTGKQWQGIRMLDLATYTAGGLPLQVPDEVTDNASLLRFYQNWQPQWKPGTTRLYANASIGLFGALAVKPSGMPYEQAMTTRVLKPLKLDHTWINVPKAEEAHYAWGYRDGKAVRVSPGMLDAQAYGVKTNVQDMANWVMANMAPENVADASLKQGIALAQSRYWRIGSMYQGLGWEMLNWPVEANTVVEGSDSKVALAPLPVAEVNPPAPPVKASWVHKTGSTGGFGSYVAFIPEKQIGIVMLANTSYPNPARVEAAYHILEALQHHHHHH | 8%

Reference: patent publication US20080269139A1 (GENENCOR INTERNATIONAL, published 2008)
